Earlier results in article PMC4340714.

Molecular target: Mst2 kinase domain (Homo sapiens) (UniProt Q13188)
UniProt Q13188, sequence (Q13188 27-278): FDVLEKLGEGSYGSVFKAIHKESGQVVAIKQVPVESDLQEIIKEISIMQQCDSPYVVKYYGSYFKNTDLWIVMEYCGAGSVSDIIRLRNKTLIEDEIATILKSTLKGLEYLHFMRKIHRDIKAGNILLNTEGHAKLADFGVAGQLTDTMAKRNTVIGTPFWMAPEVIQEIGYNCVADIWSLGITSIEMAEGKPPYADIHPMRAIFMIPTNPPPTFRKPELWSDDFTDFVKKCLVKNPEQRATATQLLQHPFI

Kd: 36 µM
Substance: Mst1 kinase domain (from UniProt Q13043)
